Measured values published in patent US20080293634A1 (WASHINGTON STATE UNIVERSITY RESEARCH FOUNDATION, published 2008).
Non-standard residues stand in square brackets, D forms with d. No end group written: not given here. Nle = CCCC[C@H](N)C(=O)O

What was measured:
[1] = molecular target: T1, c-Met receptor on mouse liver plasma membranes (mouse, UniProt P16056 25-1379); assay: competition with 50 pM ^125I-HGF for binding to mouse liver plasma membranes; mean ±SEM, n=3
T1 construct: whole, on cells; Membrane preparation from mouse liver
T1 sequence (P16056 25-1379): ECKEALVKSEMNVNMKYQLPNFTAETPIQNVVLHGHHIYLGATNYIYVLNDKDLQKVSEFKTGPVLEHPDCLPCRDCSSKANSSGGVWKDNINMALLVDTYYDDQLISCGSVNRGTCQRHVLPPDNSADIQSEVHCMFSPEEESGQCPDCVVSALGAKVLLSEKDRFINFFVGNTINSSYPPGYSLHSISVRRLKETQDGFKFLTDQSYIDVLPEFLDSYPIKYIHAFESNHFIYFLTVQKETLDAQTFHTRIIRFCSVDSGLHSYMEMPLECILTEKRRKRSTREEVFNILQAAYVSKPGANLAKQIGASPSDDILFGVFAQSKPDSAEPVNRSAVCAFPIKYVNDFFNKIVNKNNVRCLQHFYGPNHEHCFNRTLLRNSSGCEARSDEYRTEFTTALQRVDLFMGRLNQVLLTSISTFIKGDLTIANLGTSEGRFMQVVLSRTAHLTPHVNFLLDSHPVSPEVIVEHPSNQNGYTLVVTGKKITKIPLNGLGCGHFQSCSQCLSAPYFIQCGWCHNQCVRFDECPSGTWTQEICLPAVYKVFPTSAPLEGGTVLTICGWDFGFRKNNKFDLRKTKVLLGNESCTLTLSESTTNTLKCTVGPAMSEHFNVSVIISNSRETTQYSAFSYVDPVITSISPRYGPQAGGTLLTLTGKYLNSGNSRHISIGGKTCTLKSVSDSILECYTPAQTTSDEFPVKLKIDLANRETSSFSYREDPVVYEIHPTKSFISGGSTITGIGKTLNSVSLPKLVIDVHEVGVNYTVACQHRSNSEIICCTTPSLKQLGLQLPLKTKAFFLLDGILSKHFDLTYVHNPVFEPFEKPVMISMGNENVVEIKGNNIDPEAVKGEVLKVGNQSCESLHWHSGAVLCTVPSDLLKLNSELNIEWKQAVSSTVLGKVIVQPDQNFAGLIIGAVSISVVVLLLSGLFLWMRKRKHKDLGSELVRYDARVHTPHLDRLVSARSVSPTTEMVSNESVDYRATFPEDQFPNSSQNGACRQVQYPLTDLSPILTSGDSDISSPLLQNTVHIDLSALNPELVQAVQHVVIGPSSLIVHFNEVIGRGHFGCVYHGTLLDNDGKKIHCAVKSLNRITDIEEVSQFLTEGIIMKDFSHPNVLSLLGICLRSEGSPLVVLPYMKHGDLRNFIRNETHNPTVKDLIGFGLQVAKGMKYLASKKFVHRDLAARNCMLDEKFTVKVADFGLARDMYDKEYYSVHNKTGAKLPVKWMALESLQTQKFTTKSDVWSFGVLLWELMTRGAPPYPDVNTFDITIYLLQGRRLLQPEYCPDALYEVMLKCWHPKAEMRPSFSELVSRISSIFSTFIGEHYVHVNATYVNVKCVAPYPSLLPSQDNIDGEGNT
Description: Mouse liver plasma membranes were incubated with […] ¹²⁵I-HGF and the indicated concentrations of HGF or Norleual. Results are presented as percent of specific ¹²⁵I-HGF binding and error bars indicate±standard error of mean (SEM). Competition experiments included quadruplicate data points and each experiment was repeated in triplicate.
(§1) ¹²⁵I-HGF binding assay. Mouse liver was homogenized in hypotonic buffer fortified with 0.1% bovine serum albumin as described by Hanesworth et al. (1993). 600 μg of membrane protein was incubated with 50 pM ¹²⁵I-HGF with various concentrations of HGF or Norleual in a total volume of 100 μl phosphate-buffered saline (PBS) fortified with 0.1% BSA. Binding occurred for one hour on ice. Membranes were pelleted by centrifugation and washed twice with incubation buffer. Radioactivity was counted with a gamma counter (Isomedic 10/880, ICN, Cost Mesa, Calif., USA). Specific binding was calculated and normalized to control counts. Competition fits by Prism software (GraphicPad, San Diego, Calif.) were performed according to the manufacturer's instructions.
Materials and methods were as described in Example 1. In separate tests of unlabeled competitors, both Norleual and HGF competed with ¹²⁵I-HGF for high affinity binding to mouse liver plasma membranes (FIGS. 2A, 2B). […]

[2] = molecular target: T1, c-Met receptor on mouse liver plasma …; assay: competition with ^125I-HGF at various concentrations of COMPOUND 2 (mouse liver membranes)
Description: as §1
Briefly, COMPOUND 2 was iodinated with […] and bound and cross-linked to HEK cell membranes with or without 1 nM COMPOUND 2 or 1 nM hepatocyte growth factor. Following solubilization and separation of free label by molecular sieving, total radioactive counts were determined. The ability of the ligand COMPOUND 2 to compete with hepatocyte growth factor binding to the c-Met receptor was also tested using mouse liver plasma membranes and intact HEK293 cells. […] Membranes were pelleted and unbound label was removed by washing, and total radioactive counts were determined. […]

[3] = molecular target: T2, c-Met receptor on human cells (HEK293 cells and membranes, HUVEC) (human, UniProt P08581 25-1390); assay: unlabeled Norleual against ^125I-Norleual on HEK293 membranes; two-site competition fit, high-affinity site
T2 construct: Endogenous receptor of human embryonic kidney HEK293 cells, HEK293 membranes and HUVEC; also called hepatocyte growth factor receptor; HGF-R
T2 sequence (P08581 other isoform, or with tags, fused parts or gaps limits assumed): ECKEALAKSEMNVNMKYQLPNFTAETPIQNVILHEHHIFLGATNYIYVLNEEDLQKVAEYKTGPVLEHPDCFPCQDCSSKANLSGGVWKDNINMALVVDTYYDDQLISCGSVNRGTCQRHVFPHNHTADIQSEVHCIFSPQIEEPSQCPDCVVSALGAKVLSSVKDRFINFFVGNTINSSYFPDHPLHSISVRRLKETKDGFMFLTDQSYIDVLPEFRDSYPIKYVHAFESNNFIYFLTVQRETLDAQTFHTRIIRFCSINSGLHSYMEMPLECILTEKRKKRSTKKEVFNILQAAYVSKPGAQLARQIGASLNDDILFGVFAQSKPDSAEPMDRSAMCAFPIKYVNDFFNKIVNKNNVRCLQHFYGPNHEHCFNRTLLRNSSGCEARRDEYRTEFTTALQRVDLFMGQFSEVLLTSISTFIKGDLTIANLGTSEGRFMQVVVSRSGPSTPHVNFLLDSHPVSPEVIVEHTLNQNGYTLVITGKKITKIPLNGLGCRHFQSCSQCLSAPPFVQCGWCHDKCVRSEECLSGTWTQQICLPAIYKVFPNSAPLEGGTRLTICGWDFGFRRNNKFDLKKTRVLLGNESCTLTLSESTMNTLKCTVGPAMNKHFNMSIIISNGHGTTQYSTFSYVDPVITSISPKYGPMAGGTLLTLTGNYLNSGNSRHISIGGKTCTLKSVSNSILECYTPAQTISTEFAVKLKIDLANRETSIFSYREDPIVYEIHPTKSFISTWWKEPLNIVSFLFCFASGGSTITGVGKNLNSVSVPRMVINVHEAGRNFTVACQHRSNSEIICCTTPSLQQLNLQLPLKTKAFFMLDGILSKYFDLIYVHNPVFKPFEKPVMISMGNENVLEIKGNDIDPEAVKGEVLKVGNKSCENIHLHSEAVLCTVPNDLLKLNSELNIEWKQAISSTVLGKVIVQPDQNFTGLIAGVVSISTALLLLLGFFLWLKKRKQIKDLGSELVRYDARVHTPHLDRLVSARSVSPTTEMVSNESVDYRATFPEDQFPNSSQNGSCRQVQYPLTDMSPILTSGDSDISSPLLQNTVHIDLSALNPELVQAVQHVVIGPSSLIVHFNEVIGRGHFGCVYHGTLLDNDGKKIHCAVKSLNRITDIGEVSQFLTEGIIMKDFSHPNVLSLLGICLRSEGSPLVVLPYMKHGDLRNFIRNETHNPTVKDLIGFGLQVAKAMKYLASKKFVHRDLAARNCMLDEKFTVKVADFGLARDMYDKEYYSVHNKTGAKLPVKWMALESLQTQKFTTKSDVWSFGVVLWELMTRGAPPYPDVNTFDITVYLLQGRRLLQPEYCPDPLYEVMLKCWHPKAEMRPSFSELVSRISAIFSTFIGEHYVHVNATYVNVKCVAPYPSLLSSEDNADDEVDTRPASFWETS
Description: (§2) FIG. 3C: ¹²⁵I-Norleual was bound to HEK membranes in the presence or absence of 1.5 nM HGF (n=8) or 1 μM Norleual (n=6). Total binding is reported as percent control (n=10), (*p<0.001). Error bars indicate±SD. […] Error bars indicate SD and data points were performed in duplicate.
(§3) ¹²⁵I-Norleual binding assay. HEK293 cells were grown to confluency in DMEM fortified with 10% FBS. Media was aspirated and cells were washed twice with ice-cold PBS. Cells were lysed with hypotonic buffer and homogenized as described by Zhang et al. (1999, J. Pharmacol. Exp. Ther. 289: 1075-1083; 2003 J. Cell Biochem. 88: 408-417). 450 μg of membrane protein was incubated with 1.5 nM ¹²⁵I-Norleual with or without Norleual or HGF in a total volume of 250 μl PBS, 0.1% BSA. Tubes were spun and binding was carried out for 60 minutes at RT. Bound and free ligands were separated by vacuum filtration using (Brandel Cell Harvester, Schleicher & Schull, Keene, N.H., USA) 32 glass filters. Radioactivity retained by the filters was measured using a gamma counter. […] Data analysis was preformed using Prism software (GraphicPad) per the supplier's recommendations.

[4] = molecular target: T2, c-Met receptor on human cells (HEK293 …); assay: unlabeled Norleual against ^125I-Norleual on HEK293 membranes; two-site competition fit, low-affinity site
Description: as §2, §3

B1: Norleual (Nle-Tyr-Leu-ψ-(CH2-NH2)-His-Pro-Phe) (peptide)
peptide: [Nle]YLHPF
modifications: not fully specified; printed as Nle-Tyr-Leu-ψ-(CH2-NH2)-His-Pro-Phe; also: reduced peptide bond ψ(CH2-NH) between Leu3 and His4
notes: Synthesized by Syngene and purified by reverse phase HPLC; Peptidomimetic hexapeptide; also called Compound 2; COMPOUND 2
B1 was tested, and the IC50 [1] was 0.0031 nM, the Kd [2] was about 0.003 nM and the IC50 [3] was 0.048 nM. For the same binder, the IC50 [4] was 7.4 nM.
